Source: paper PMC13436963
Each block holds one molecule with its values, some of them ahead of it.

Key:
[1] = target: EGFP-tagged full-length Drosophila Notch [Drosophila melanogaster]; test: luciferase-coupled co-immunoprecipitation (GFP-trap); conditions: S2 cells, Notch-GFP WT, n=4, parent: 1, read off a plot
[2] = target: T1, Drosophila Notch LNR domain F1563A fused to split firefly luciferase fragments, P07207; test: split-luciferase complementation assay; conditions: chain shown with the change; S2 cells; bar labelled 'F1563A + F1563A'; n=5; parent: 1.0; read off a plot
T1 chain: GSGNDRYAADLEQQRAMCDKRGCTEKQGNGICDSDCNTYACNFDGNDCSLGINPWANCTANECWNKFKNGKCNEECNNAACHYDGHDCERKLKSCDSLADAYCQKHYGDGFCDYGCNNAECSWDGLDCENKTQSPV

[3] = target: T2, Drosophila Notch LNR domain H1570A fused to split firefly luciferase fragments, P07207; test: split-luciferase complementation assay; conditions: chain shown with the change; S2 cells; bar labelled 'H1570A + H1570A'; n=5; parent: 1.0; read off a plot
T2 chain: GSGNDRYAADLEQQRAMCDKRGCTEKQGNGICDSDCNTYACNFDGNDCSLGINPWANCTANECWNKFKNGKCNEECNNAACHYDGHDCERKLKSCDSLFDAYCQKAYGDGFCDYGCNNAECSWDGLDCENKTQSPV

ratio to parent ([1]; LNR-Luc F1563A): 1.1
Molecule: luciferase-tagged Drosophila Notch LNR domain (residues G1465 to V1600) mutant F1563A [Drosophila melanogaster] / EGFP-tagged full-length Drosophila Notch [Drosophila melanogaster] chain 1 F99A

ratio to parent ([1]; LNR-Luc H1570A): 0.97
Molecule: luciferase-tagged Drosophila Notch LNR domain (residues G1465 to V1600) mutant H1570A [Drosophila melanogaster] / EGFP-tagged full-length Drosophila Notch [Drosophila melanogaster] chain 1 H106A

ratio to parent [2]: 0.96
B1: Drosophila Notch LNR domain fused to split firefly luciferase fragments (LNR–NLuc and LNR–CLuc), P07207 F1563A (N-Luc copy); F1563A (C-Luc copy) (protein)
chain: GSGNDRYAADLEQQRAMCDKRGCTEKQGNGICDSDCNTYACNFDGNDCSLGINPWANCTANECWNKFKNGKCNEECNNAACHYDGHDCERKLKSCDSLADAYCQKHYGDGFCDYGCNNAECSWDGLDCENKTQSPV

ratio to parent [3]: 0.87
B2: Drosophila Notch LNR domain fused to split firefly luciferase fragments (LNR–NLuc and LNR–CLuc), P07207 H1570A (N-Luc copy); H1570A (C-Luc copy) (protein)
chain: GSGNDRYAADLEQQRAMCDKRGCTEKQGNGICDSDCNTYACNFDGNDCSLGINPWANCTANECWNKFKNGKCNEECNNAACHYDGHDCERKLKSCDSLFDAYCQKAYGDGFCDYGCNNAECSWDGLDCENKTQSPV
